± gives the uncertainty stated by the source.
Experiment: protein stability index of a GFP-peptide fusion (yeast GPS) (PSI 1-4); higher = more stable; sorted into four equal gates, so the index is relative within each strain
In short: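 The protein stability index of a peptide was calculated by multiplying its read frequency in each gate by that gate's number and adding the products. The peptides were tiled 17-residue stretches of yeast proteins, fused downstream of GFP on a Cherry-expressing plasmid and carried in yeast as a pooled library. Mid-log cultures in leucine-free medium were sorted into four equal gates by GFP/Cherry ratio, and each gate's plasmids were PCR-amplified and Illumina-sequenced.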

Sequence	protein stability index (doa10∆)	protein stability index (pdr5∆)	protein stability index (san1∆)	protein stability index (ubr1∆)
YYEQFRPDLIKEDHPLE [SIR3]	2.68 ± 0.058	2.73 ± 0.066	3.02 ± 0.043	2.67 ± 0.046
ASAASEAIRDPKNSSSP [SSN8]	2.61 ± 0.19	3.18 ± 0.2	2.46 ± 0.25	3.13 ± 0.13
GALPPDLSLIVKARHGG [CYT1]	1.83 ± 0.23	1.97 ± 0.14		2.23 ± 0.17
SMFGSDQKTGRAKSSSH [RPN4]	3.02 ± 0.087	3.25 ± 0.11	3.14 ± 0.071	2.9 ± 0.076
PPQQTYHFPIFNKYADP [RPN4]	2.52 ± 0.046	2.8 ± 0.042	2.59 ± 0.034	2.65 ± 0.03
ALDIVCSDFVKILNLEK [NUT1]	2.7 ± 0.069	2.7 ± 0.07	2.35 ± 0.11	2.29 ± 0.099
SYSGYDIEDALVLNKSS [RET1]	2.4 ± 0.059	2.63 ± 0.052	2.18 ± 0.071	2.45 ± 0.047
IQEYQLCDNFNHFSLSY [COR1]	2.35 ± 0.049	2.61 ± 0.053	2.44 ± 0.055	2.27 ± 0.057
ELKIRSKTENVRRLEAQ [RPT6]	2.5 ± 0.16	2.53 ± 0.12	1.58 ± 0.27	2.53 ± 0.095
QTLGLESFTEELSNELS [MED1]	3.29 ± 0.064	3.1 ± 0.051	3.06 ± 0.05	3 ± 0.037
DCENFFNYVQECPAIPI [YJL039C/NUP192]	2.49 ± 0.075	2.93 ± 0.064	3.23 ± 0.069	2.99 ± 0.05
ALRLSMEEEQQRQERLR [RPN10]	3.33 ± 0.16	3.06 ± 0.26	3.36 ± 0.065	3.38 ± 0.11
TTLDAEKVFTQGLNILE [FAS1]	3.17 ± 0.11	3.21 ± 0.1	3.32 ± 0.091	3.28 ± 0.064
KNGNEYNEFLYSKAGRE [QCR8]	2.77 ± 0.064	3 ± 0.081	2.77 ± 0.06	2.75 ± 0.05
SSLYEASLNALKESIKN [RPN1]	3.26 ± 0.1	3.1 ± 0.1	3.38 ± 0.085	3.08 ± 0.065
VAALVSLTEKFSQTVAD [ECM29]	2.77 ± 0.08	1.61 ± 0.059	1.8 ± 0.14	1.67 ± 0.085
LNIDWSTTGDNGELDLS [MED2]	2.2 ± 0.057	2.48 ± 0.058	2.13 ± 0.079	2.28 ± 0.044
LPEKVNFRTMQQQQMQQ [SSN2]	2.3 ± 0.18	2.75 ± 0.18	2.46 ± 0.19	2.38 ± 0.14
SAAELERLDKDKDRDTR [SNF5]	1.76 ± 0.087	1.46 ± 0.14	1.9 ± 0.12	2.95 ± 0.11
DRDALSGWGAVVYIIKK [PUP3]	3.12 ± 0.081	2.96 ± 0.063	2.99 ± 0.06	3.13 ± 0.056
KTYGISDDIISQVDPIT [FAS2]	1.71 ± 0.16	1.1 ± 0.12		1.06 ± 0.13
PSLELSAEYLQMSLEAN [YJR042W/NUP85]	1.78 ± 0.087	2.15 ± 0.095	2.54 ± 0.18	2.4 ± 0.07
EGEAKQKRNAHGYFLQD [ITC1]	3.18 ± 0.065	3.4 ± 0.072	3.35 ± 0.035	3.32 ± 0.043
PSVNDFVIGVIIGTFSD [RRP40]	1.64 ± 0.06	2.51 ± 0.07	2.15 ± 0.077	2.56 ± 0.084
NSRGKFDDACNQIWNIA [SSN2]	3.04 ± 0.15	3.01 ± 0.1	2.87 ± 0.12	3.09 ± 0.14
ENAYDNPLADAEEALEP [PRE4]	3.1 ± 0.086	3 ± 0.082	3.1 ± 0.063	3.13 ± 0.057
ENGLQLSDNAKTLHSQM [RPC34]	3.11 ± 0.18	3.27 ± 0.096	3.27 ± 0.07	3.13 ± 0.053

Sequence	protein stability index (doa10∆)	protein stability index (pdr5∆)	protein stability index (san1∆)	protein stability index (ubr1∆)
KSVRILKNKAEYLKNCP [RPC40]	3.13 ± 0.066	3.19 ± 0.064	3.12 ± 0.049	3.15 ± 0.046
TFAKSKNYSRPSTAIHT [SIR4]	2.03 ± 0.099	1.79 ± 0.066	1.53 ± 0.1	2.15 ± 0.05
EAASITRKSLNNAVRFS [ECM29]	2.59 ± 0.081	2.88 ± 0.084	2.86 ± 0.055	2.97 ± 0.048
SIFAMGLCGAGTNNARL [RPN1]	2.44 ± 0.058	1.27 ± 0.043	1.24 ± 0.094	1.12 ± 0.039
DYYQSIYAKYGAKGSTL [FAS2]	2.85 ± 0.094	2.79 ± 0.07	2.71 ± 0.067	3.13 ± 0.076
NKTAHLSIPGKSTPEGT [SNU114]	2.94 ± 0.065	3.04 ± 0.061	2.79 ± 0.048	3.01 ± 0.038
TTFTHCEIHPSMILGVA [RPB2]	1.75 ± 0.11	2.39 ± 0.075	1.3 ± 0.14	2.57 ± 0.098
LEIRNKICSSEMINEQK [RGR1]	3.02 ± 0.11	2.91 ± 0.14	3.01 ± 0.15	2.9 ± 0.12
IGGLLSKVREEVGDVCI [RPO31]	2.13 ± 0.1	1.86 ± 0.067	2.11 ± 0.11	2.79 ± 0.11
TKPSETPATIVKKPTFT [YOR098C/NUP1]	2.91 ± 0.05	3.08 ± 0.057	3.09 ± 0.043	3.04 ± 0.054
QQQLQQNSKEKNGLGLN [MED2]	2.5 ± 0.29	3.26 ± 0.12	2.42 ± 0.26	2.96 ± 0.13
NMEIRNLRLKILTIIEE [GRR1]	1.62 ± 0.065	1.53 ± 0.049	1.83 ± 0.078	1.33 ± 0.046
VDSLDPFSEGVTFSVMP [SMC4]	2.92 ± 0.086	2.39 ± 0.065	2.2 ± 0.13	3.1 ± 0.072
FEKKELQEKFLNQIATL [IRR1]	1.08 ± 0.056	1.23 ± 0.057	1.15 ± 0.1	1.04 ± 0.062
VSMITDHNALPQRCTFA [POP1]	2.97 ± 0.18	3.01 ± 0.11	2.3 ± 0.18	2.73 ± 0.13
REYLEEYKSLFVVGVDN [RPP0]	3.11 ± 0.075	2.55 ± 0.087	2.91 ± 0.1	3.24 ± 0.071
LPNEAGRLEIFKIHTAK [RPT4]	2.6 ± 0.16	3.07 ± 0.16	2.92 ± 0.19	2.66 ± 0.11
SGEDTNVGLPILKSLKN [YOR098C/NUP1]	2.95 ± 0.1	3.16 ± 0.13	2.85 ± 0.069	3.28 ± 0.12
DDFDMLFGENDTSTQAY [NUT1]	3.42 ± 0.08	3.37 ± 0.071	3.51 ± 0.053	3.2 ± 0.055
TLVEIFLERKCVHMVYE [SSN3]	1.35 ± 0.063	1.7 ± 0.071	1.52 ± 0.11	1.75 ± 0.048
ELTAQGYDPALLNILSG [RPN2]	2.76 ± 0.091	3.06 ± 0.12	2.58 ± 0.071	2.89 ± 0.079
FNIISMTLKEMYQMITM [SMC4]	1.92 ± 0.074	1.97 ± 0.054	2.22 ± 0.075	2.15 ± 0.042
FVEEQNVYVLPKNLLKK [PRP8]	2.54 ± 0.056	2.5 ± 0.045	2.54 ± 0.07	2.87 ± 0.059
MCVSKGNASLKYIALQV [YCG1]	2.54 ± 0.099	2.02 ± 0.077	1.48 ± 0.12	2.6 ± 0.084
ATPQEAQFYLGKRIAYV [RPL33B]	1.64 ± 0.11	2.2 ± 0.068	1.76 ± 0.076	2.43 ± 0.077
HDEKSDSLNEWIKFDQE [RPN7]	3.19 ± 0.13	3.29 ± 0.22	3.27 ± 0.076	3.21 ± 0.072
TAKRKSRKRKPKSASNT [IRR1]	2.97 ± 0.12	3.21 ± 0.13	2.6 ± 0.26	3.08 ± 0.055

Sequence	protein stability index (doa10∆)	protein stability index (pdr5∆)	protein stability index (san1∆)	protein stability index (ubr1∆)
LLVLLQDVIKVLYQSNA [SWP82]	1.84 ± 0.074	2.03 ± 0.084	1.72 ± 0.12	1.7 ± 0.054
RTMYFILDGQDVEENRS [YJR042W/NUP85]	2.45 ± 0.077	3.03 ± 0.089	3.22 ± 0.086	3.23 ± 0.044
QLNGNETFSTSAHQSPI [SNF2]	3.31 ± 0.11	2.99 ± 0.075	3.16 ± 0.072	3.22 ± 0.054
LIEFQPSQGVHYKVPTD [MED6]	2.6 ± 0.066	2.98 ± 0.061	2.93 ± 0.062	2.93 ± 0.046
SLAVRSLQDRSSLVRRN [YCS4]	2.4 ± 0.041	2.71 ± 0.047	2.35 ± 0.045	2.59 ± 0.038
LSDRANKNQDAFEAELS [ARP9]	3.28 ± 0.072	3.13 ± 0.08	3.04 ± 0.07	3.31 ± 0.057
DEEMTISQKLHDSILHS [RRP43]	2.7 ± 0.052	2.74 ± 0.035	2.82 ± 0.03	2.92 ± 0.035
ERIVVSYEYYNIKHKHT [SMC2]	1.63 ± 0.047	1.86 ± 0.064	1.74 ± 0.11	1.87 ± 0.049
VELTYSLNNSDSLISGV [BRR2]	2.73 ± 0.12	2.98 ± 0.085	3.14 ± 0.088	3.12 ± 0.051
MSRDAPIKADKDYSQIL [RPN5]	2.97 ± 0.1	2.44 ± 0.078	2.21 ± 0.13	2.67 ± 0.062
IYNSTDSNSEILNFLNQ [YML103C/NUP188]	3.1 ± 0.2	2.72 ± 0.067	2.71 ± 0.055	2.9 ± 0.076
LLSKLLLKHPFKAIHGS [YCS4]	2.37 ± 0.051	2.09 ± 0.05	1.67 ± 0.059	2.44 ± 0.035
ITVVPVVAAAEDDDNEQ [QCR6]	1.61 ± 0.068	2.04 ± 0.064	1.72 ± 0.12	1.89 ± 0.036
VDTLHNKEGTLEQREQN [SSN2]	3.14 ± 0.15	3.47 ± 0.099	3.21 ± 0.058	3.35 ± 0.081
TSPGFGVSSPGFSPTSP [RPO21]	2.7 ± 0.077	2.66 ± 0.071	2.5 ± 0.058	2.93 ± 0.043
MASYMLNSFAFELCSLG [YJR042W/NUP85]	1.29 ± 0.17	1.51 ± 0.16		1.5 ± 0.23
YDPKDGLYKMMEERDGA [AAR2]	3.41 ± 0.12	2.94 ± 0.11	3.4 ± 0.092	
HKVQTKLTRELEKKFPD [RPS7B]	2.82 ± 0.16	3.07 ± 0.093	3.1 ± 0.058	3.07 ± 0.055
FDKVEVQVRSVMDPITS [DIS3]	2.78 ± 0.07	2.8 ± 0.066	3.21 ± 0.053	3.04 ± 0.064
STPYLEILVEESGLRPV [PCI8]	1.57 ± 0.048	1.55 ± 0.091	1.54 ± 0.19	2.17 ± 0.091
QTLSSHLEALQPLFSTV [PGD1]	1.96 ± 0.031	1.97 ± 0.037	2.2 ± 0.052	2.49 ± 0.034
LKNCKISNINIPISSET [SMC1]	2.81 ± 0.17	2.95 ± 0.11	3.05 ± 0.08	2 ± 0.067
LIKFVDLSRNGRNGSNG [NUT1]	3.08 ± 0.074	3.2 ± 0.099	3.15 ± 0.068	3.2 ± 0.069
DGEGKVDSISLHKIFYK [YCG1]	2.78 ± 0.087	3.24 ± 0.064	3.13 ± 0.048	2.94 ± 0.063
EDAKYVINLKQIAKFVV [RPT1]	1.61 ± 0.12	2.4 ± 0.2	1.8 ± 0.21	1.96 ± 0.1
WSFYNGNVLINDTLPDE [SNU114]		2.23 ± 0.16		1.7 ± 0.16
